Conditions in all cases: both partners purified
Assay [1] has as its target T1, DDDK-rHev b 8 (rHev b 8 with the last four residues of the enterokinase cleavage site at the N-terminus) (Hevea brasiliensis).
T1 construct: last four residues of the enterokinase cleavage site left at the N-terminus (D-3, D-2, D-1, K-0); D-2 makes a hydrogen bond with Y49 of the Fab light chain; profilin Hev b 8, Hevea brasiliensis, from M1; The whole construct was expected at 18,283 Da but measured 14,625 Da (14,629 Da in another paragraph): only DDDK is left of the N-terminal extension; also called DDDK-Hev b 8; rHev b 8 whole …
T1 chain: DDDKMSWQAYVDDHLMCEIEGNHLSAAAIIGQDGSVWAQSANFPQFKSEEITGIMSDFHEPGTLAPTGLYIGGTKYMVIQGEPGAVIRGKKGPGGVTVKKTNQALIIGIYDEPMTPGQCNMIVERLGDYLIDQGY
The experiment in a line: MALDI-TOF mass spectrometry; sinapinic acid matrix; samples of Fab/IgE 2F5 and of its complex with rHev b 8 (whole construct); the peaks of the complex and of the dimeric Fab were not calibrated.

The target in assay [2] is T2, biotinylated rHev b 8 (Hevea brasiliensis, biotin (1:5 profilin:biotin ratio; sites not stated)).
T2 construct: profilin Hev b 8, Hevea brasiliensis, named 'rHev b 8' in the BLI methods; The BLI methods say only 'Profilin rHev b 8'; also called biotinylated profilin; biotinylated allergen; source: E. coli Rosetta (DE3), purified (HisTrap), then biotinylated at a 1:5 profilin:biotin ratio and dialyzed
T2 chain: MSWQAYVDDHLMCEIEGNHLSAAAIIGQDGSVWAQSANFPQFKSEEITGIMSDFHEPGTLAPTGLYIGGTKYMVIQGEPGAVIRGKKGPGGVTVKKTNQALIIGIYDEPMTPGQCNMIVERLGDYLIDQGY
Kind of assay: BLI; same BLI data (biotinylated rHev b 8 on streptavidin, 25 °C, PBS pH 7.4, 0.05% Tween 20, 1 M NaCl); kon from the association step and koff from the dissociation step fitted separately in Prism 8, KD = koff/kon. Background: Biolayer interferometry detects binding as a change in optical thickness at a sensor tip.

In assay [3] the target is T2, biotinylated rHev b 8. The experiment in a line: BLI; biotinylated rHev b 8 (125 nM) on streptavidin biosensors; Fab/IgE 2F5 at 62.5-2000 nM; 25 °C; PBS pH 7.4, 0.05% Tween 20, 1 M NaCl; 1:1 global fit considering nonspecific binding (Association-Dissociation model, GraphPad Prism 8).
In assay [4] the target is T1, DDDK-rHev b 8 (rHev b 8 with the last …). Kind of assay: ELISA; plates coated with 100 μL of 0.7 μM profilin in PBS pH 7.4, blocked with 1% BSA; IgE 2F5 in PBS, 1 h 37 °C; detected with HRP anti-mouse IgE Fcε, ABTS, 405 nm; n = 4.
For assay [5], the target named is T3, recombinant maize profilin (rZea m 12) (Zea mays).
T3 construct: profilin Zea m 12, maize; has D14, G98, V118, E128; The mutagenesis primers encode KKT(N)MSL and YLI(D)QGF around positions 98 and 128
T3 chain: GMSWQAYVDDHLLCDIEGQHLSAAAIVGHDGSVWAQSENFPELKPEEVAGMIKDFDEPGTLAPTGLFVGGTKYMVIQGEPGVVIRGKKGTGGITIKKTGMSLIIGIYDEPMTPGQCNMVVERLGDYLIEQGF
The assay is described as above.

Usually Kd stands for the equilibrium constant for the complex coming apart.

B1: Fab/IgE 2F5 (papain Fab fragment of the murine IgE 2F5) (Fab, V domains shown)
VH: EVQLVESGGGLVQPKGSLKLSCAASGFTFNTYAMNWVRQAPGKGLEWVARIRTKTNNYVTYYADSVKDRFTISRDDSQSMLYLQMNNLKTEDTAMYYCVRHVGDYWGQGTSVTVSS
VL: DIQMTQSPASLSASVGETVTITCRASGNIHNYLAWFQQKQGKSPQLLVYNAKTLADGVPSRFSGSGSGTQYSLKINSLQPEDFGSYYCQHFWSTPYTFGGGTKLEIK
notes: VH and Cε1; papain cleavage site said to be R209/P210 between Cε1 and Cε2; light chain of IgE 2F5; also called the Fab; source: papain digest of IgE 2F5 (36 h, 37 °C), purified (Superdex 75 SEC, Mono Q)
Turning to B1, the binding result in assay [1] is “binds”. Besides, the Kd came to 369 ± 3.8 nM with biotinylated rHev b 8 [2] and 370 ± 6.8 nM in the assay with biotinylated rHev b 8 [3].

B2: murine monoclonal IgE antibody 2F5 (anti-profilin Hev b 8) (antibody, V domains shown)
VH: EVQLVESGGGLVQPKGSLKLSCAASGFTFNTYAMNWVRQAPGKGLEWVARIRTKTNNYVTYYADSVKDRFTISRDDSQSMLYLQMNNLKTEDTAMYYCVRHVGDYWGQGTSVTVSS
VL: DIQMTQSPASLSASVGETVTITCRASGNIHNYLAWFQQKQGKSPQLLVYNAKTLADGVPSRFSGSGSGTQYSLKINSLQPEDFGSYYCQHFWSTPYTFGGGTKLEIK
notes: rest of the murine IgE (epsilon) heavy chain constant region after the papain site R209/P210 (Cε2 onward); as the light chain of m2; Native, non-recombinant IgE with naturally paired chains; also called IgE 2F5; mAb 2F5; copies: 2 + 2
For the molecule B2, the binding result is “binds” in assay [4] and “no binding” in assay [5].

Source of the values: article PMC9334453, “A native IgE in complex with profilin provides insights into allergen recognition and cross-reactivity” (Communications Biology, 2022).
